Experimental data published in PMC4730846 (Science Advances, 2015).

Target: GroEL (Escherichia coli, UniProt P0A6F5 2-548)
Assay: proteinase K protection assay

Chain of GroEL (P0A6F5 2-548): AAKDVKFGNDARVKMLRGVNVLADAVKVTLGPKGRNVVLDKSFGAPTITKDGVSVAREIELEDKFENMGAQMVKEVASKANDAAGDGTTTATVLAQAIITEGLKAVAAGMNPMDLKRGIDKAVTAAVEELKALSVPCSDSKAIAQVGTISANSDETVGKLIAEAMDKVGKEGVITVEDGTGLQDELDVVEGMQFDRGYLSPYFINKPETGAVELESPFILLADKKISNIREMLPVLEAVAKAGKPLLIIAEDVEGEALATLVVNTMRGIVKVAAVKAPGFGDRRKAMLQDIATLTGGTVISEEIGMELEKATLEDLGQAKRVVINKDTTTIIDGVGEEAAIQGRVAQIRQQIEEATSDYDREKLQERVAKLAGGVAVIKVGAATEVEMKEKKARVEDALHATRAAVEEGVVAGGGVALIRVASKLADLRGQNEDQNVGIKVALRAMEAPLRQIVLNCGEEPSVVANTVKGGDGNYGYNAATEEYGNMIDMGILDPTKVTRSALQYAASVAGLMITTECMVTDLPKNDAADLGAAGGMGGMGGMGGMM

B1: GroES (natural protein)
chain: MNIRPLHDRVIVKRKEVETKSAGGIVLTGSAAAKSTRGEVLAVGNGRILENGEVKPLDVKVGDIVIFNDGYGVKSEKIDNEEVLIMSESDILAIVEA
- binding result: binds
